T1: MPDZ_12, O75970
T1 sequence (O75970 1857-1958, limits assumed, looked up): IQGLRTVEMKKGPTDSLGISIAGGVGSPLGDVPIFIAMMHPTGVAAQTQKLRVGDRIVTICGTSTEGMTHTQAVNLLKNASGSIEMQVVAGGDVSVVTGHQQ

T2: RAPGEF6, Q8TEU7
T2 sequence (Q8TEU7 525-625, limits assumed, looked up): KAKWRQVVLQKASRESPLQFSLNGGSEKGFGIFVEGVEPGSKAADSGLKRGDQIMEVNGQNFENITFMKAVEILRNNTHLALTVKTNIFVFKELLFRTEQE

T3: APBA2_2, Q99767
T3 sequence (Q99767 654-744, limits assumed, looked up): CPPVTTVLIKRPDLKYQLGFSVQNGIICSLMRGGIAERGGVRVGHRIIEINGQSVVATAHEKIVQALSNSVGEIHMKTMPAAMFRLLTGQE

T4: GRIP1_5, Q9Y3R0
T4 sequence (Q9Y3R0 568-668, limits assumed, looked up): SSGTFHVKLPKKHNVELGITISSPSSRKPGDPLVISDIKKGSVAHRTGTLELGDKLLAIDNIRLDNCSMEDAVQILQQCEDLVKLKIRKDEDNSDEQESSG

T5: SHANK1, Q9Y566
T5 sequence (Q9Y566 658-767, limits assumed, looked up): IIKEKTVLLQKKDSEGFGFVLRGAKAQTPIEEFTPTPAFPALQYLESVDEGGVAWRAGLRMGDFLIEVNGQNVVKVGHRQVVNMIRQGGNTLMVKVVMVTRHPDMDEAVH

T6: APBA3_1, O96018
T6 sequence (O96018 389-490, limits assumed, looked up): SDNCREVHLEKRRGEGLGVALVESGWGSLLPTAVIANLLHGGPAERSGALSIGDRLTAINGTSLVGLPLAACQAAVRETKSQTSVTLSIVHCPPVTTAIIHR

T7: NHERF3_4, Q5T2W1
T7 sequence (Q5T2W1 373-468, limits assumed, looked up): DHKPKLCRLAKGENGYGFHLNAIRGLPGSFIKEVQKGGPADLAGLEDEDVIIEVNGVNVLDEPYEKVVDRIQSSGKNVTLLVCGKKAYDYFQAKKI

T8: LNX2_2, Q8N448
T8 sequence (Q8N448 334-432, limits assumed, looked up): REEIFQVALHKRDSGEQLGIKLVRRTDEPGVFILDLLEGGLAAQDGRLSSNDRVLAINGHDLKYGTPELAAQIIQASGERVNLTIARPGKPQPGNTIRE

T9: HTRA4, P83105
T9 sequence (P83105 378-476, limits assumed, looked up): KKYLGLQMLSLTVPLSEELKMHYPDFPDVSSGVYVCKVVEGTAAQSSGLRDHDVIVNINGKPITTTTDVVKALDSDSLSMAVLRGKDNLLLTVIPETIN

T10: PTPN13_1, Q12923
T10 sequence (Q12923 1088-1188, limits assumed, looked up): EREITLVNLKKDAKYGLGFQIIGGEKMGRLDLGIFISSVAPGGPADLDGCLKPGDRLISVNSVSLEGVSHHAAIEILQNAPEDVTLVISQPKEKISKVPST

T11: PDZD7_3, Q9H5P4
T11 sequence (Q9H5P4 857-944, limits assumed, looked up): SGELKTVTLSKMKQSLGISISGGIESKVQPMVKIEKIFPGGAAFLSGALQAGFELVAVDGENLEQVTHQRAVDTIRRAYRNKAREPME

B1: KCNA7, Q96RP8 (peptide)
chain: PPGKHLVTEV
B2: FZD2, Q14332 (peptide)
chain: TNSRHGETTV

These binders were tested against T1, MPDZ_12, O75970 (assay: holdup assay). Conditions: plain residues with an end cap or a label only (N-terminal biotin on a linker: ado-ado).
Set-up: key: below the threshold = too weak to quantify, mostly under pKd 3.1 to 4
Binder B1 has a pKd of 3.88.
B2 was tested, and the pKd was “below the threshold”.

These binders were tested against Inadl_3, Q8NI35 (assay: holdup assay). Conditions: plain residues with an end cap or a label only (N-terminal biotin on a linker: ado-ado).
Sequence of Inadl_3, Q8NI35 (Q8NI35 359-469): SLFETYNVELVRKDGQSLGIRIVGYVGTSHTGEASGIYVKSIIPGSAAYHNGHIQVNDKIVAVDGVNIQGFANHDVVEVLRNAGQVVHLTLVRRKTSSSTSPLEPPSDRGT
Set-up: key: below the threshold = too weak to quantify, mostly under pKd 3.1 to 4
B1 was tested, and the pKd was 3.7.
B2 showed a pKd of 3.51.

Each binder was assayed against DLG4_2, P78352 (assay: holdup assay). Conditions: plain residues with an end cap or a label only (N-terminal biotin on a linker: ado-ado).
Sequence of DLG4_2, P78352 (P78352 155-259): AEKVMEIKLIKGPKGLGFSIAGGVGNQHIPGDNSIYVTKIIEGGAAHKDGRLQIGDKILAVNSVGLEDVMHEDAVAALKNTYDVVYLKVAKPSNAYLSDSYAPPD
Set-up: key: below the threshold = too weak to quantify, mostly under pKd 3.1 to 4
Binder B1 has a pKd of 5.11.
B2 showed a pKd of 4.92.

The binders below were run against PTPN3, P26045 (assay: holdup assay). Conditions: plain residues with an end cap or a label only (N-terminal biotin on a linker: ado-ado).
Sequence of PTPN3, P26045 (P26045 505-587): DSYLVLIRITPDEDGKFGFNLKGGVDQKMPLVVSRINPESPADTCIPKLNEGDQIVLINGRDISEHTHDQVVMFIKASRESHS
Set-up: key: below the threshold = too weak to quantify, mostly under pKd 3.1 to 4
B1 gave a pKd of 4.74.
Work on B2 yielded a pKd of 4.61.

What follows are binders tested against T2, RAPGEF6, Q8TEU7 (assay: holdup assay). Conditions: plain residues with an end cap or a label only (N-terminal biotin on a linker: ado-ado).
Set-up: key: below the threshold = too weak to quantify, mostly under pKd 3.1 to 4
For B1, the pKd was 3.52.
B2 was tested, and the pKd was “below the threshold”.

What follows are binders tested against T3, APBA2_2, Q99767 (assay: holdup assay). Conditions: plain residues with an end cap or a label only (N-terminal biotin on a linker: ado-ado).
Set-up: key: below the threshold = too weak to quantify, mostly under pKd 3.1 to 4
With B1 the pKd was “below the threshold”.
B2 was tested, and the pKd was “below the threshold”.

What follows are binders tested against T4, GRIP1_5, Q9Y3R0 (assay: holdup assay). Conditions: plain residues with an end cap or a label only (N-terminal biotin on a linker: ado-ado).
Set-up: key: below the threshold = too weak to quantify, mostly under pKd 3.1 to 4
B1 was tested, and the pKd was “below the threshold”.
In the case of B2, the pKd is reported as “below the threshold”.

Each binder was assayed against DLG4_3, P78352 (assay: holdup assay). Conditions: plain residues with an end cap or a label only (N-terminal biotin on a linker: ado-ado).
Sequence of DLG4_3, P78352 (P78352 306-403): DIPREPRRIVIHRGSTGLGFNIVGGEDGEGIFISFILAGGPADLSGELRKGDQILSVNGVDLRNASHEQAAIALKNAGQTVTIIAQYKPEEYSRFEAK
Set-up: key: below the threshold = too weak to quantify, mostly under pKd 3.1 to 4
For B1, the pKd was 4.16.
B2 gave a pKd of 4.24.

The binders below were run against DLG1_1, Q12959 (assay: holdup assay). Conditions: plain residues with an end cap or a label only (N-terminal biotin on a linker: ado-ado).
Set-up: key: below the threshold = too weak to quantify, mostly under pKd 3.1 to 4
Binder B1 has a pKd of 4.76.
Binder B2 has a pKd of 4.76.

The binders below were run against T5, SHANK1, Q9Y566 (assay: holdup assay). Conditions: plain residues with an end cap or a label only (N-terminal biotin on a linker: ado-ado).
Set-up: key: below the threshold = too weak to quantify, mostly under pKd 3.1 to 4
B1 was tested, and the pKd was 3.71.
With B2 the pKd was “below the threshold”.

These binders were tested against PDZRN4_1, Q6ZMN7 (assay: holdup assay). Conditions: plain residues with an end cap or a label only (N-terminal biotin on a linker: ado-ado).
Sequence of PDZRN4_1, Q6ZMN7 (Q6ZMN7 213-318): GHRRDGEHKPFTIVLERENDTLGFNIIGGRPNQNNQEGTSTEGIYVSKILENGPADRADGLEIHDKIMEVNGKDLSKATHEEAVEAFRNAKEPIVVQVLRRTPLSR
Set-up: key: below the threshold = too weak to quantify, mostly under pKd 3.1 to 4
In the case of B1, the pKd is reported as “below the threshold”.
Binder B2 has a pKd of 4.18.

What follows are binders tested against LNX1_1, Q8TBB1 (assay: holdup assay). Conditions: plain residues with an end cap or a label only (N-terminal biotin on a linker: ado-ado).
Sequence of LNX1_1, Q8TBB1 (Q8TBB1 261-371): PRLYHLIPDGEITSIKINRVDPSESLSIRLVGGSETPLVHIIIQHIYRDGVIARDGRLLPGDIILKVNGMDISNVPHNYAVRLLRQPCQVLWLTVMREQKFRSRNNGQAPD
Set-up: key: below the threshold = too weak to quantify, mostly under pKd 3.1 to 4
Binder B1 has a pKd of 4.22.
For B2, the pKd was “below the threshold”.

These binders were tested against LNX1_2, Q8TBB1 (assay: holdup assay). Conditions: plain residues with an end cap or a label only (N-terminal biotin on a linker: ado-ado).
Sequence of LNX1_2, Q8TBB1 (Q8TBB1 371-470): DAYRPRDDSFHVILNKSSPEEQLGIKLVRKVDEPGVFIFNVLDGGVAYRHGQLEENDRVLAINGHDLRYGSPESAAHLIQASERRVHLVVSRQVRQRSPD
Set-up: key: below the threshold = too weak to quantify, mostly under pKd 3.1 to 4
B1 showed a pKd of 3.53.
B2 gave a pKd of 3.78.

These binders were tested against FRMPD4, Q14CM0 (assay: holdup assay). Conditions: plain residues with an end cap or a label only (N-terminal biotin on a linker: ado-ado).
Sequence of FRMPD4, Q14CM0 (Q14CM0 67-160): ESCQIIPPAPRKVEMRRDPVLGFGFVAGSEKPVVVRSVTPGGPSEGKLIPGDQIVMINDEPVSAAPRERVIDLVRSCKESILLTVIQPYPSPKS
Set-up: key: below the threshold = too weak to quantify, mostly under pKd 3.1 to 4
For B1, the pKd was “below the threshold”.
B2 was tested, and the pKd was “below the threshold”.

Each binder was assayed against LIMK2, P53671 (assay: holdup assay). Conditions: plain residues with an end cap or a label only (N-terminal biotin on a linker: ado-ado).
Sequence of LIMK2, P53671 (P53671 143-248): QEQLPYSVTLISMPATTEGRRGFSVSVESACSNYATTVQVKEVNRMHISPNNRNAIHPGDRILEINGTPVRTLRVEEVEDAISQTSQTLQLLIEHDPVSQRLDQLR
Set-up: key: below the threshold = too weak to quantify, mostly under pKd 3.1 to 4
B1 was tested, and the pKd was “below the threshold”.
For B2, the pKd was “below the threshold”.

These binders were tested against T6, APBA3_1, O96018 (assay: holdup assay). Conditions: plain residues with an end cap or a label only (N-terminal biotin on a linker: ado-ado).
Set-up: key: below the threshold = too weak to quantify, mostly under pKd 3.1 to 4
With B1 the pKd was “below the threshold”.
With B2 the pKd was “below the threshold”.

The binders below were run against MAGI2_6, Q86UL8 (assay: holdup assay). Conditions: plain residues with an end cap or a label only (N-terminal biotin on a linker: ado-ado).
Sequence of MAGI2_6, Q86UL8 (Q86UL8 1141-1229): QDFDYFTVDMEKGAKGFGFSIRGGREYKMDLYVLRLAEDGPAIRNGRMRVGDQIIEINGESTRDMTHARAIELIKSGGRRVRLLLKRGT
Set-up: key: below the threshold = too weak to quantify, mostly under pKd 3.1 to 4
For B1, the pKd was 4.51.
B2 gave a pKd of 4.26.

These binders were tested against T7, NHERF3_4, Q5T2W1 (assay: holdup assay). Conditions: plain residues with an end cap or a label only (N-terminal biotin on a linker: ado-ado).
Set-up: key: below the threshold = too weak to quantify, mostly under pKd 3.1 to 4
B1 was tested, and the pKd was “below the threshold”.
In the case of B2, the pKd is reported as “below the threshold”.

What follows are binders tested against AHNAK1, Q09666 (assay: holdup assay). Conditions: plain residues with an end cap or a label only (N-terminal biotin on a linker: ado-ado).
Sequence of AHNAK1, Q09666 (Q09666 4-100): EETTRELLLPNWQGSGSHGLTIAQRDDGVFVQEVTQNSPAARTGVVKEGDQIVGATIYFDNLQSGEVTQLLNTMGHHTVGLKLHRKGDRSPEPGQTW
Set-up: key: below the threshold = too weak to quantify, mostly under pKd 3.1 to 4
With B1 the pKd was “below the threshold”.
For B2, the pKd was “below the threshold”.

Each binder was assayed against T8, LNX2_2, Q8N448 (assay: holdup assay). Conditions: plain residues with an end cap or a label only (N-terminal biotin on a linker: ado-ado).
Set-up: key: below the threshold = too weak to quantify, mostly under pKd 3.1 to 4
B1 was tested, and the pKd was 4.91.
B2 showed a pKd of 4.83.

These binders were tested against Inadl_1, Q8NI35 (assay: holdup assay). Conditions: plain residues with an end cap or a label only (N-terminal biotin on a linker: ado-ado).
Sequence of Inadl_1, Q8NI35 (Q8NI35 113-229): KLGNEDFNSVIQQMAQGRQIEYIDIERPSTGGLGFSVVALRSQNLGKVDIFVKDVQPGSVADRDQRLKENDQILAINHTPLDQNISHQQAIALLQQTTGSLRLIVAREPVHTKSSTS
Set-up: key: below the threshold = too weak to quantify, mostly under pKd 3.1 to 4
B1 was tested, and the pKd was “below the threshold”.
B2 was tested, and the pKd was “below the threshold”.

What follows are binders tested against T9, HTRA4, P83105 (assay: holdup assay). Conditions: plain residues with an end cap or a label only (N-terminal biotin on a linker: ado-ado).
Set-up: key: below the threshold = too weak to quantify, mostly under pKd 3.1 to 4
In the case of B1, the pKd is reported as 4.61.
For B2, the pKd was “below the threshold”.

Each binder was assayed against DLG2_2, Q15700 (assay: holdup assay). Conditions: plain residues with an end cap or a label only (N-terminal biotin on a linker: ado-ado).
Sequence of DLG2_2, Q15700 (Q15700 189-283): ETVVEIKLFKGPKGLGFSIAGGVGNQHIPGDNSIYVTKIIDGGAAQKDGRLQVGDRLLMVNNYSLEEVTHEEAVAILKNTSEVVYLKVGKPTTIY
Set-up: key: below the threshold = too weak to quantify, mostly under pKd 3.1 to 4
In the case of B1, the pKd is reported as 5.01.
B2 gave a pKd of 4.81.

The binders below were run against Inadl_9, Q8NI35 (assay: holdup assay). Conditions: plain residues with an end cap or a label only (N-terminal biotin on a linker: ado-ado).
Sequence of Inadl_9, Q8NI35 (Q8NI35 1530-1615): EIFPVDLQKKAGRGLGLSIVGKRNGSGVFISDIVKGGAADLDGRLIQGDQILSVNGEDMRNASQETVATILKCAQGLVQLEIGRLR
Set-up: key: below the threshold = too weak to quantify, mostly under pKd 3.1 to 4
In the case of B1, the pKd is reported as “below the threshold”.
B2 gave a pKd of 3.74.

Each binder was assayed against T10, PTPN13_1, Q12923 (assay: holdup assay). Conditions: plain residues with an end cap or a label only (N-terminal biotin on a linker: ado-ado).
Set-up: key: below the threshold = too weak to quantify, mostly under pKd 3.1 to 4
With B1 the pKd was “below the threshold”.
For B2, the pKd was “below the threshold”.

The binders below were run against MAGI2_5, Q86UL8 (assay: holdup assay). Conditions: plain residues with an end cap or a label only (N-terminal biotin on a linker: ado-ado).
Sequence of MAGI2_5, Q86UL8 (Q86UL8 915-1017): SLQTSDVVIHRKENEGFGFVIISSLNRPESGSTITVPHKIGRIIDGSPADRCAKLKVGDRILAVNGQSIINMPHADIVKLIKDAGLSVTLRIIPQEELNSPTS
Set-up: key: below the threshold = too weak to quantify, mostly under pKd 3.1 to 4
In the case of B1, the pKd is reported as 4.73.
B2 showed a pKd of 3.6.

These binders were tested against T11, PDZD7_3, Q9H5P4 (assay: holdup assay). Conditions: plain residues with an end cap or a label only (N-terminal biotin on a linker: ado-ado).
Set-up: key: below the threshold = too weak to quantify, mostly under pKd 3.1 to 4
B1 was tested, and the pKd was 5.2.
Work on B2 yielded a pKd of 4.26.

— article PMC9482650, “Quantitative fragmentomics allow affinity mapping of interactomes” (Nature Communications, 2022)
